Measurements from paper PMC9482650, “Quantitative fragmentomics allow affinity mapping of interactomes” (Nature Communications, 2022).

What was measured:
Test in all cases: holdup assay
Parameters in all cases: key: below the threshold = too weak to quantify, mostly under pKd 3.1 to 4
[1] = target: DLG4_1, P78352
[2] = target: T1, MPP2, Q14168
T1 sequence (Q14168 180-250, limits assumed, looked up): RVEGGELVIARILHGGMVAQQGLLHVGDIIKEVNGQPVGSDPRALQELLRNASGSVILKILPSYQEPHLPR

[3] = target: MAST1, Q9Y2H9
[4] = target: MAGI2_6, Q86UL8
[5] = target: Inadl_5, Q8NI35
[6] = target: T2, LRRC7, Q96NW7
T2 sequence (Q96NW7 1440-1537, limits assumed, looked up): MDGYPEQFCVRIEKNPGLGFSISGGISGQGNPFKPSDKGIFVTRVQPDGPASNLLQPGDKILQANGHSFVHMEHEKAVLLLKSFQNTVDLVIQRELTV

[7] = target: TJP2_1, Q9UDY2
[8] = target: TJP1_2, Q07157
[9] = target: MAGI2_4, Q86UL8
[10] = target: T3, GRIP1_7, Q9Y3R0
T3 sequence (Q9Y3R0 999-1096, limits assumed, looked up): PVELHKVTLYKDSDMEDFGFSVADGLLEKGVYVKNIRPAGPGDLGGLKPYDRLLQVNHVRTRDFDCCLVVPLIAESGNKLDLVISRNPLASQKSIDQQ

[11] = target: MAGI1_2, Q96QZ7
[12] = target: T4, DLG3_2, Q92796
T4 sequence (Q92796 221-321, limits assumed, looked up): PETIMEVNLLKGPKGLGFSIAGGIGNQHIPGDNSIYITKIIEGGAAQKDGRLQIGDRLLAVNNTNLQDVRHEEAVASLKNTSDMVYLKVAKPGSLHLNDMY

[13] = target: NHERF4_4, Q86UT5
[14] = target: T5, GRIP1_2, Q9Y3R0
T5 sequence (Q9Y3R0 145-248, limits assumed, looked up): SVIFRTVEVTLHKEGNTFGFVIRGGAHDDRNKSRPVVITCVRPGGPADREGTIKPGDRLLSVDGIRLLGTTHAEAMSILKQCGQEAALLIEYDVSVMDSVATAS

[15] = target: MAGI1_1, Q96QZ7
[16] = target: SCRIB_3, Q14160
[17] = target: T6, LIN7A, O14910
T6 sequence (O14910 103-200, limits assumed, looked up): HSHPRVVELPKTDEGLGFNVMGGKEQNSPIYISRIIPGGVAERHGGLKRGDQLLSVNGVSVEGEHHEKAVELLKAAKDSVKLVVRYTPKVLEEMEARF

[18] = target: T7, MPDZ_10, O75970
T7 sequence (O75970 1624-1722, limits assumed, looked up): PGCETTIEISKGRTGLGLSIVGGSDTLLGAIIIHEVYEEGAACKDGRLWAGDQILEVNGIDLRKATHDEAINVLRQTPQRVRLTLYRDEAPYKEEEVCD

[19] = target: MAGI3_2, Q5TCQ9
[20] = target: PDLIM1, O00151
[21] = target: Inadl_4, Q8NI35
[22] = target: FRMPD2_3, Q68DX3
[23] = target: T8, SIPA1L2, Q9P2F8
T8 sequence (Q9P2F8 945-1036, limits assumed, looked up): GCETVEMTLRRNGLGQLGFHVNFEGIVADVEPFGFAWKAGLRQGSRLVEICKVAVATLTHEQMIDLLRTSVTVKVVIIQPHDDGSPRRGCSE

[24] = target: T9, DLG3_1, Q92796
T9 sequence (Q92796 125-227, limits assumed, looked up): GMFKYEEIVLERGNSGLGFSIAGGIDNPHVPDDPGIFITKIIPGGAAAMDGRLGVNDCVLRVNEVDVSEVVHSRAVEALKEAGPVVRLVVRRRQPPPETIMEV

[25] = target: LNX1_3, Q8TBB1
[26] = target: FRMPD2_2, Q68DX3
[27] = target: T10, RADIL, Q96JH8
T10 sequence (Q96JH8 971-1071, limits assumed, looked up): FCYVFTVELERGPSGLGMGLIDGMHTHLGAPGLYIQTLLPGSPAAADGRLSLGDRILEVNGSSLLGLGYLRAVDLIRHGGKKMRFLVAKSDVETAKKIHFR

[28] = plain residues with an end cap or a label only (N-terminal biotin on a linker: ado-ado, ttds)
[29] = plain residues with an end cap or a label only (N-terminal biotin on a linker: ahx)
[30] = plain residues with an end cap or a label only (N-terminal biotin on a linker: ttds)

Chain of TJP2_1, Q9UDY2 (Q9UDY2 24-128): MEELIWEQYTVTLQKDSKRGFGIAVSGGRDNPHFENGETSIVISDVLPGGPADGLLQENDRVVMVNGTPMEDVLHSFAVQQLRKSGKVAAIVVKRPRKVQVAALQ
Chain of FRMPD2_3, Q68DX3 (Q68DX3 1073-1166): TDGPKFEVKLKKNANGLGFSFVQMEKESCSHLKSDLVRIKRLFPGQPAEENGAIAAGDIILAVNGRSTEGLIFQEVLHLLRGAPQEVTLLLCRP
Chain of SCRIB_3, Q14160 (Q14160 999-1103): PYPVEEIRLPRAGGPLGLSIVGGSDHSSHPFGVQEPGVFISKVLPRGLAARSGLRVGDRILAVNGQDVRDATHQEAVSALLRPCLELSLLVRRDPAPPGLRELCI
Chain of MAGI2_4, Q86UL8 (Q86UL8 772-865): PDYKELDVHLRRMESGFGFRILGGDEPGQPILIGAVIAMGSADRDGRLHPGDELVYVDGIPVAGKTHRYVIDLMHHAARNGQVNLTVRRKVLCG
Chain of MAGI3_2, Q5TCQ9 (Q5TCQ9 398-503): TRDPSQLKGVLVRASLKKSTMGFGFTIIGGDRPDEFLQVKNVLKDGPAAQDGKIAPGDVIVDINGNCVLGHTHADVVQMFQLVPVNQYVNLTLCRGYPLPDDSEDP
Chain of MAGI1_2, Q96QZ7 (Q96QZ7 456-580): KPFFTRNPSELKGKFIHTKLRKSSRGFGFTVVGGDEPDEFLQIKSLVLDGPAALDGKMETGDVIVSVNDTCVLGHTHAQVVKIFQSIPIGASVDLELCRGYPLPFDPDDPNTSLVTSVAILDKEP
Chain of Inadl_5, Q8NI35 (Q8NI35 673-780): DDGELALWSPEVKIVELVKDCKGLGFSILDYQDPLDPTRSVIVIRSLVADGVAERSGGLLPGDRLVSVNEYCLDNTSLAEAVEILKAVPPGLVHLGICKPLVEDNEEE
Chain of PDLIM1, O00151 (O00151 1-87): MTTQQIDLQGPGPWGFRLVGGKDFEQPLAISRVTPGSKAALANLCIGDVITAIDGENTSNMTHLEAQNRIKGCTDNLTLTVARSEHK
Chain of DLG4_1, P78352 (P78352 62-152): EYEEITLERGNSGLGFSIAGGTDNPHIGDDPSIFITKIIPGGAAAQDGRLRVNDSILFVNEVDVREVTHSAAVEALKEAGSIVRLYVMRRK
Chain of NHERF4_4, Q86UT5 (Q86UT5 464-550): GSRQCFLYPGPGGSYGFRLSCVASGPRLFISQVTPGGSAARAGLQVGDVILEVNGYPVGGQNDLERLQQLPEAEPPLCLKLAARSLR
Chain of MAGI1_1, Q96QZ7 (Q96QZ7 1-106): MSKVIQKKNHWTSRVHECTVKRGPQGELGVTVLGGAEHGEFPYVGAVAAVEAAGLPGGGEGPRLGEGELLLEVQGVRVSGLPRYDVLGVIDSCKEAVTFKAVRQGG
Chain of LNX1_3, Q8TBB1 (Q8TBB1 500-596): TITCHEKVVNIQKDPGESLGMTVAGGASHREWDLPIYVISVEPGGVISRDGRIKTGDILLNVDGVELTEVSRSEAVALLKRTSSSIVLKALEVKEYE
Chain of MAST1, Q9Y2H9 (Q9Y2H9 962-1065): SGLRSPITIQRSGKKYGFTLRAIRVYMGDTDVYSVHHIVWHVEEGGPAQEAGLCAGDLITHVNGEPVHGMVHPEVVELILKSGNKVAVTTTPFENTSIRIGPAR
Chain of TJP1_2, Q07157 (Q07157 181-274): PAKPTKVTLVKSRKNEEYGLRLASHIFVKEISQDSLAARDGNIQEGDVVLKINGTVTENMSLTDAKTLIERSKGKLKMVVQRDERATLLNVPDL
Chain of FRMPD2_2, Q68DX3 (Q68DX3 944-1038): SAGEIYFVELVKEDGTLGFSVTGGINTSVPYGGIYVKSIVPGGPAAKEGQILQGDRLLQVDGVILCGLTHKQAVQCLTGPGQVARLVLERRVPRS
Chain of Inadl_4, Q8NI35 (Q8NI35 547-651): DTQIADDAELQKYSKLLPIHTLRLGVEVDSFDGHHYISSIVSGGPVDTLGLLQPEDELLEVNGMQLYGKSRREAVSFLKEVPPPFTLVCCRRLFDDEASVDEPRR
Chain of MAGI2_6, Q86UL8 (Q86UL8 1141-1229): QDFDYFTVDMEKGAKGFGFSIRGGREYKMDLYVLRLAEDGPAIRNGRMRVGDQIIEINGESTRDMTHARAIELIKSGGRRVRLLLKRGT

B1: KCNA4, P22459 (peptide)
chain: SNAKAVETDV
pKd [1, 28]: 4.67 | pKd [2, 28]: below the threshold | pKd [3, 28]: 4.32 | pKd [4, 28]: 4.35 | pKd [5, 28]: below the threshold | pKd [6, 28]: 3.64 | pKd [7, 28]: below the threshold | pKd [8, 28]: below the threshold | pKd [9, 28]: 3.79 | pKd [10, 28]: below the threshold | pKd [11, 28]: below the threshold | pKd [12, 28]: 5.23 | pKd [13, 28]: below the threshold | pKd [14, 28]: below the threshold | pKd [15, 28]: below the threshold | pKd [16, 28]: 4.8 | pKd [17, 28]: below the threshold | pKd [18, 28]: below the threshold | pKd [19, 28]: 3.9 | pKd [20, 28]: 3.77 | pKd [21, 28]: below the threshold | pKd [22, 28]: below the threshold | pKd [23, 28]: below the threshold | pKd [24, 28]: 4.25 | pKd [25, 28]: below the threshold | pKd [26, 28]: 3.52 | pKd [27, 28]: below the threshold

B2: NHERF1, O14745 (peptide)
chain: SKKNELFSNL
pKd [1, 29]: below the threshold | pKd [2, 29]: below the threshold | pKd [3, 29]: 3.6 | pKd [4, 29]: below the threshold | pKd [5, 29]: below the threshold | pKd [6, 29]: below the threshold | pKd [7, 29]: below the threshold | pKd [8, 29]: below the threshold | pKd [9, 29]: below the threshold | pKd [10, 29]: below the threshold | pKd [11, 29]: below the threshold | pKd [12, 29]: below the threshold | pKd [13, 29]: below the threshold | pKd [14, 29]: below the threshold | pKd [15, 29]: below the threshold | pKd [16, 29]: below the threshold | pKd [17, 29]: below the threshold | pKd [18, 29]: below the threshold | pKd [19, 29]: below the threshold | pKd [20, 29]: below the threshold | pKd [21, 29]: below the threshold | pKd [22, 29]: below the threshold | pKd [23, 29]: below the threshold | pKd [24, 29]: below the threshold | pKd [25, 29]: below the threshold | pKd [26, 29]: below the threshold | pKd [27, 29]: below the threshold

B3: SLC15A5, A6NIM6 (peptide)
chain: SSIDLWETAL
pKd [1, 30]: 4.29 | pKd [2, 30]: below the threshold | pKd [3, 30]: 5.45 | pKd [4, 30]: 5.08 | pKd [5, 30]: below the threshold | pKd [6, 30]: 4.47 | pKd [7, 30]: below the threshold | pKd [8, 30]: below the threshold | pKd [9, 30]: below the threshold | pKd [10, 30]: below the threshold | pKd [11, 30]: below the threshold | pKd [12, 30]: 4.28 | pKd [13, 30]: 4.4 | pKd [14, 30]: below the threshold | pKd [15, 30]: below the threshold | pKd [16, 30]: 5.71 | pKd [17, 30]: 4.27 | pKd [18, 30]: below the threshold | pKd [19, 30]: 3.81 | pKd [20, 30]: 4.22 | pKd [21, 30]: below the threshold | pKd [22, 30]: below the threshold | pKd [23, 30]: below the threshold | pKd [24, 30]: 3.87 | pKd [25, 30]: below the threshold | pKd [26, 30]: 4.3 | pKd [27, 30]: 3.78

B4: HPV82-E6, Q9IR59 (peptide)
chain: PPRQRSETQV
pKd [1, 30]: 4.65 | pKd [2, 30]: below the threshold | pKd [3, 30]: 4.41 | pKd [4, 30]: 3.46 | pKd [5, 30]: 3.31 | pKd [6, 30]: below the threshold | pKd [7, 30]: 3.44 | pKd [8, 30]: below the threshold | pKd [9, 30]: 4.72 | pKd [10, 30]: below the threshold | pKd [11, 30]: 5.54 | pKd [12, 30]: 4.98 | pKd [13, 30]: below the threshold | pKd [14, 30]: below the threshold | pKd [15, 30]: below the threshold | pKd [16, 30]: 4.05 | pKd [17, 30]: below the threshold | pKd [18, 30]: below the threshold | pKd [19, 30]: 5.68 | pKd [20, 30]: below the threshold | pKd [21, 30]: below the threshold | pKd [22, 30]: below the threshold | pKd [23, 30]: below the threshold | pKd [24, 30]: 4.12 | pKd [25, 30]: below the threshold | pKd [26, 30]: below the threshold | pKd [27, 30]: 3.34
